According to patent publication US20150037348A1 (AbbVie / Abbott, published 2015):
Substitutions are numbered along the chain they refer to. Values belong to the binder of their own block, whether it stands above or below them.

Key:
[1] = molecular target: T1, human IL-12 (human, UniProt P29459 23-219; P29460 23-328); assay: SPR (BIAcore), IL-12 chip
T1 construct: recombinant human IL-12 heterodimer (p35/p40, disulfide-linked); also called hIL-12; rhIL-12
T1 sequence (looked up) 1: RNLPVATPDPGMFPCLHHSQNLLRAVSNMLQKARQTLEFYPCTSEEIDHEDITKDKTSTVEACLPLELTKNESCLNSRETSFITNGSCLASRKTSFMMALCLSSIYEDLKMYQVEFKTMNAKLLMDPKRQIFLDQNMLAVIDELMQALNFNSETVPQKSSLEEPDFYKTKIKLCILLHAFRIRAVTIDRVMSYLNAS
T1 sequence (looked up) 2: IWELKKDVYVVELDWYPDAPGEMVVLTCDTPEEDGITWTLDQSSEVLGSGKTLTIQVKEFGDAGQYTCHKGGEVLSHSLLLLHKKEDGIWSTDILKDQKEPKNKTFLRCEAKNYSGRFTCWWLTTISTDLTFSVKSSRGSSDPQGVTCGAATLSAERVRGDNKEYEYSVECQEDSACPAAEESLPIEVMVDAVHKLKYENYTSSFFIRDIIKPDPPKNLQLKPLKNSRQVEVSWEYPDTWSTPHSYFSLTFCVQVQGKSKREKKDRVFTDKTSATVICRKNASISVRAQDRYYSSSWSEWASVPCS
From the text: The system utilizes the optical properties of SPR to detect alterations in protein concentrations within a dextran biosensor matrix. Proteins are covalently bound to the dextran matrix at known concentrations. […] To determine the off rate (koff), on rate (kₒₙ), association rate (Ka) and dissociation rate (Kd) constants, BIAcore kinetic evaluation software (version 2.1) was used.

[2] = molecular target: T2, recombinant human IL-12 (rhIL-12) (human, UniProt P29459 23-219; P29460 23-328); assay: BIAcore SPR, IL-12 on chip
T2 construct: disulfide-linked p35/p40 heterodimer (p70); also called IL-12 p70; rec. human IL12
T2 sequence (looked up) 1: T1 sequence (looked up) 1
T2 sequence (looked up) 2: T1 sequence (looked up) 2

B2: A9 (scFv, V domains shown)
VH: QVQLVQSGGGVVQPGRSLRLSCAASGFTFSSYGMHWVRQAPGKGLEWVAFIRYDGSNKYYADSVKGRFTISRDNSKNTLYLQMKSLRAEDTAVYYCKTHGSHDNWGQGTMVTVSS
VL: SYVLTQPPSVSGTPGQRVTISCSGGRSNIGSNTVKWYQQLPGTAPKLLIYGNDQRPSGVPDRFSGSKSGTSASLAITGVQAEDEADYYCQSYDRGPARTSPFGTGTKVTVL
notes: scFv
koff [1]: 0.00798 s⁻¹

B4: C12 (scFv, V domains shown)
VH: B2 VH
VL: B2 VL with P96L, A97R, R98V, T99Q, S100A
notes: scFv
koff [1]: 0.00585 s⁻¹

B5: C9 (scFv, V domains shown)
VH: B2 VH
VL: B2 VL with A97T, R98H, T99L, S100P, P101H
notes: scFv
koff [1]: 0.00397 s⁻¹

B6: B2 (scFv, V domains shown)
VH: B2 VH
VL: B2 VL with P96R, A97P, T99H, S100A, P101L
notes: scFv
koff [1]: 0.00361 s⁻¹

B7: B5 (scFv, V domains shown)
VH: B2 VH
VL: B2 VL with P96Q, A97P, R98H, T99A, S100V, P101L
notes: scFv
koff [1]: 0.00304 s⁻¹

B8: A11 (scFv, V domains shown)
VH: B2 VH
VL: B2 VL with P96T, A97F, R98P, T99S, S100P, P101Q
notes: scFv
koff [1]: 0.00207 s⁻¹

B9: B3 (scFv, V domains shown)
VH: B2 VH
VL: B2 VL with P96T, A97P, R98S, T99Y, S100P, P101T
notes: scFv
koff [1]: 0.00412 s⁻¹

B11: A10 (scFv, V domains shown)
VH: B2 VH
VL: B2 VL with P96N, A97S, R98P, T99A, S100T, P101V
notes: scFv
koff [1]: 0.00187 s⁻¹

B12: A4 (scFv, V domains shown)
VH: B2 VH
VL: B2 VL with P96R, A97N, R98P, T99A, S100L, P101T
notes: scFv
koff [1]: 0.00147 s⁻¹

B13: A5 (scFv, V domains shown)
VH: B2 VH
VL: B2 VL with P96T, A97H, R98P, T99S, S100M, P101L
notes: scFv
koff [1]: 0.00112 s⁻¹

B14: B11 (scFv, V domains shown)
VH: B2 VH
VL: B2 VL with P96I, A97T, R98P, T99G, S100L, P101A
notes: scFv
koff [1]: 0.00295 s⁻¹

B15: B8 (scFv, V domains shown)
VH: B2 VH
VL: B2 VL with P96H, A97T, R98A, T99H, S100L, P101Y
notes: scFv
koff [1]: 0.0024 s⁻¹

B19: C5 (scFv, V domains shown)
VH: B2 VH
VL: B2 VL with A97H, R98T, T99Q, S100P, P101T
notes: scFv
koff [1]: 0.00391 s⁻¹

B20: B9 (scFv, V domains shown)
VH: B2 VH
VL: B2 VL with P96R, R98A, T99H, S100P, P101Q
notes: scFv
koff [1]: 0.00866 s⁻¹

B21: M2 B4 (scFv, V domains shown)
VH: B2 VH
VL: B2 VL with R94I, P96L, A97T, R98G, T99S, S100R, P101V
notes: scFv
koff [1]: 0.0442 s⁻¹

B22: A2 (scFv, V domains shown)
VH: B2 VH
VL: B2 VL with A97Y, R98H, T99P, S100I, P101R
notes: scFv
koff [1]: 0.0038 s⁻¹

B24: A3 (scFv, V domains shown)
VH: B2 VH
VL: B2 VL with P96Y, A97P, T99N, S100I, P101L
notes: scFv
koff [1]: 0.00251 s⁻¹

B25: C6 (scFv, V domains shown)
VH: B2 VH
VL: B2 VL with P96Q, A97T, R98P, T99S, S100I, P101T
notes: scFv
koff [1]: 0.00242 s⁻¹

B26: B7 (scFv, V domains shown)
VH: B2 VH
VL: B2 VL with P96D, A97S, R98N, T99H, S100D, P101L
notes: scFv
koff [1]: 0.00545 s⁻¹

B28: B10 (scFv, V domains shown)
VH: B2 VH
VL: B2 VL with P96L, A97S, R98D, T99S, S100P, P101L
notes: scFv
koff [1]: 0.00604 s⁻¹

B31: A7 (scFv, V domains shown)
VH: B2 VH
VL: B2 VL with P96H, A97N, R98N, T99F
notes: scFv
koff [1]: 0.00395 s⁻¹

B35: C7 (scFv, V domains shown)
VH: B2 VH
VL: B2 VL with P96I, A97P, R98T, T99S, S100Y, P101L
notes: scFv
koff [1]: 0.00583 s⁻¹

B36: A6 (scFv, V domains shown)
VH: B2 VH
VL: B2 VL with P96T, A97H, R98P, T99W, S100L, P101H
notes: scFv
koff [1]: 0.00187 s⁻¹

B37: A1 (scFv, V domains shown)
VH: B2 VH
VL: B2 VL with P96L, A97P, T99L, S100T, P101H
notes: scFv
koff [1]: 0.00566 s⁻¹

B38: M2 A4 (scFv, V domains shown)
VH: B2 VH
VL: B2 VL with R94S, P96F, A97P, R98G, T99S, S100R, P101V
notes: scFv
koff [1]: 0.00849 s⁻¹

B39: M2 C3 (scFv, V domains shown)
VH: B2 VH
VL: B2 VL with R94T, P96L, A97T, R98G, T99S, S100R, P101V
notes: scFv
koff [1]: 0.0462 s⁻¹

B40: C3 (scFv, V domains shown)
VH: B2 VH
VL: B2 VL with R94S, P96V, A97D, R98P, T99G, S100P, P101Y
notes: scFv
koff [1]: 0.00334 s⁻¹

B42: C8 (scFv, V domains shown)
VH: B2 VH
VL: B2 VL with R94S, P96T, A97S, R98N, T99L, S100L
notes: scFv
koff [1]: 0.00536 s⁻¹

Continued, values first:

koff [1]: 0.00044 s⁻¹
B1: 170-11 (scFv, V domains shown)
VH: B2 VH with K97T, H99S, H102Y, N104Y
VL: B2 VL with P96L, A97T, R98G, T99F, S100R, P101V
notes: scFv

koff [1]: 0.00369 s⁻¹
B3: 170-21 (scFv, V domains shown)
VH: B2 VH with K97T, H102Q
VL: B2 VL with P96F, A97T, R98G, T99P, S100R, P101L
notes: scFv

koff [2]: 0.0057 s⁻¹
B10: 99-C11 (scFv, V domains shown)
VH: B2 VH
VL: B2 VL with R94S, P96F, A97T, R98G, T99S, S100R, P101V
notes: scFv clone

koff [2]: 0.0054 s⁻¹
B16: 99-E9 (scFv, V domains shown)
VH: B2 VH
VL: B2 VL with R94S, P96F, A97T, R98G, T99S, S100R, P101V
notes: scFv clone

koff [1]: 0.00055 s⁻¹
B17: 177-G6 (scFv, V domains shown)
VH: B2 VH
VL: B2 VL with P96T, A97H, R98P, S100M, P101I
notes: scFv

koff [1]: 0.001 s⁻¹
B18: 170-19 (scFv, V domains shown)
VH: B2 VH with K97T
VL: B2 VL with P96F, A97T, R98D, T99Y, S100K, P101V
notes: scFv

koff [1]: 0.00344 s⁻¹
B23: 177-H10 (scFv, V domains shown)
VH: B2 VH
VL: B2 VL with P96T, A97H, R98P, S100M, P101Y
notes: scFv

koff [1]: 0.000794 s⁻¹
B27: 177-C6 (scFv, V domains shown)
VH: B2 VH
VL: B2 VL with P96T, A97H, R98P, T99V, S100P, P101A
notes: scFv

koff [1]: 0.00143 s⁻¹
B29: A12 (scFv, V domains shown)
VH: B2 VH
VL: B2 VL with P96T, A97T, R98P, T99R, S100P, P101M
notes: scFv

koff [1]: 0.00443 s⁻¹
B30: 170-15 (scFv, V domains shown)
VH: B2 VH with K97T, H99S, H102Y, N104Y
VL: B2 VL with P96L, A97T, R98G, T99Y, S100R, P101L
notes: scFv

koff [2]: 0.0048 s⁻¹
B32: 99-G7 (scFv, V domains shown)
VH: B2 VH
VL: B2 VL with D93L, R94K, G95S, P96R, R98F, T99S, S100R, P101V
notes: scFv clone

koff [2]: 0.0054 s⁻¹
B33: 99-B11 (scFv, V domains shown)
VH: B2 VH
VL: B2 VL with R94S, P96Y, A97T, R98G, T99S, S100R, P101V
notes: scFv clone

koff [2]: 0.0054 s⁻¹
B34: 99-F11 (scFv, V domains shown)
VH: B2 VH
VL: B2 VL with R94S, P96F, A97T, R98G, T99S, S100R, P101V
notes: scFv clone

koff [1]: 1e-05 s⁻¹
B41: 170-35 (scFv, V domains shown)
VH: B2 VH with K97A, H102Q
VL: B2 VL with P96F, A97T, R98G, T99S, S100R, P101V
notes: scFv
